Source: US20180044434A1 (PUBLIC UNIVERSITY CORPORATION YOKOHAMA CITY UNIVERSITY, published 2018)

T1: Ala mutant having 3-amino acid substitution, SEQ ID NO: 46
T1 peptide: EENMDDAAAQDEMEIGY

T2: Ala mutant having 3-amino acid substitution, SEQ ID NO: 45
T2 peptide: EENAAAQWMQDEMEIGY

T3: Ala mutant of TA0096, SEQ ID NO: 35
T3 peptide: EENMDDQWAQDEMEIGY

T4: Ala mutant of TA0096, SEQ ID NO: 32
T4 peptide: EENMDAQWMQDEMEIGY


What was measured:
[1] = molecular target: T1, Ala mutant having 3-amino acid …; experiment: ELISA, coated peptide
[2] = molecular target: T2, Ala mutant having 3-amino acid …; experiment: ELISA, 3-amino acid Ala mutants
Experimental: (§1) The epitope of each of A11 etc. was identified by alanine scan. Specifically, the following procedures (i) to (iii) were carried out. (i) Each amino acid residue of the antigen sequence (SEQ ID NO: 1) was replaced by another amino acid one by one, and 17 different Ala mutants (SEQ ID Nos: 27 to 43) were synthesized. (ii) The reactivity of each of the Ala mutants toward a test antibody was evaluated (ELISA).
(§2) Note that, as additional experiments, 6 different Ala mutants having 3-amino acid substitution (SEQ ID NOs: 44 to 49) were likewise examined in the experiments.

[3] = molecular target: T1, Ala mutant having 3-amino acid …; experiment: ELISA, 3-amino acid Ala mutants
Experimental: as §1, §2

[4] = molecular target: T3, Ala mutant of TA0096, SEQ ID NO: 35; experiment: ELISA, alanine scan (position 348)
Experimental: as §1
(§3) The “96 pAb” designated in the table refers to antiserum as obtained by immunizing a chicken with TA0096 (SEQ ID NO: 1). The 96 pAb, which is an anti-PAD4 polyclonal antibody, can substantially keep the affinity toward PAD4 even if any of single amino acids of PAD4 is replaced.

[5] = molecular target: T5, full-length recombinant human PAD4 (human, UniProt Q9UM07 1-663); experiment: ELISA, coated human PAD4; antibody 1 ug/mL
T5 construct: Full-length recombinant; also called peptidylarginine deiminase 4
T5 sequence (Q9UM07 whole entry): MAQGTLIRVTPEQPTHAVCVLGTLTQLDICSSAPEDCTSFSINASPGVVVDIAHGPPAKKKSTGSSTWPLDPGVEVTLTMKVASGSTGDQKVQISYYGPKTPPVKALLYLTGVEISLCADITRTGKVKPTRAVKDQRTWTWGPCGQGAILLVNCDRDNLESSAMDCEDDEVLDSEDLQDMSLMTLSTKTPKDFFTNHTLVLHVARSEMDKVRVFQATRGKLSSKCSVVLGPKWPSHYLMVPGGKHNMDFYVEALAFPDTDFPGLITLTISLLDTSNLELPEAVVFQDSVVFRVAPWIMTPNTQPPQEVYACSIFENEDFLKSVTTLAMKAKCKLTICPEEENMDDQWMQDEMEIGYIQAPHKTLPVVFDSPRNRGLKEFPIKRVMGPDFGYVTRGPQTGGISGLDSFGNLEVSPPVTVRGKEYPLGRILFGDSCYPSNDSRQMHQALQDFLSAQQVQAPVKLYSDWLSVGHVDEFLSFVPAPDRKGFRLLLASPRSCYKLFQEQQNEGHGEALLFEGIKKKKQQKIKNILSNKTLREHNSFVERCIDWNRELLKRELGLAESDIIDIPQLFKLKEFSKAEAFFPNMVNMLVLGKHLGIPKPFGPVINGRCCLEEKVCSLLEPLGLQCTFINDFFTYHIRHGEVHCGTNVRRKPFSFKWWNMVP

[6] = molecular target: T6, full-length recombinant mouse PAD4 (mouse, UniProt Q9Z183 1-666); experiment: ELISA, coated mouse PAD4; antibody 1 ug/mL
T6 construct: mature; Full-length recombinant
T6 sequence (Q9Z183 whole entry): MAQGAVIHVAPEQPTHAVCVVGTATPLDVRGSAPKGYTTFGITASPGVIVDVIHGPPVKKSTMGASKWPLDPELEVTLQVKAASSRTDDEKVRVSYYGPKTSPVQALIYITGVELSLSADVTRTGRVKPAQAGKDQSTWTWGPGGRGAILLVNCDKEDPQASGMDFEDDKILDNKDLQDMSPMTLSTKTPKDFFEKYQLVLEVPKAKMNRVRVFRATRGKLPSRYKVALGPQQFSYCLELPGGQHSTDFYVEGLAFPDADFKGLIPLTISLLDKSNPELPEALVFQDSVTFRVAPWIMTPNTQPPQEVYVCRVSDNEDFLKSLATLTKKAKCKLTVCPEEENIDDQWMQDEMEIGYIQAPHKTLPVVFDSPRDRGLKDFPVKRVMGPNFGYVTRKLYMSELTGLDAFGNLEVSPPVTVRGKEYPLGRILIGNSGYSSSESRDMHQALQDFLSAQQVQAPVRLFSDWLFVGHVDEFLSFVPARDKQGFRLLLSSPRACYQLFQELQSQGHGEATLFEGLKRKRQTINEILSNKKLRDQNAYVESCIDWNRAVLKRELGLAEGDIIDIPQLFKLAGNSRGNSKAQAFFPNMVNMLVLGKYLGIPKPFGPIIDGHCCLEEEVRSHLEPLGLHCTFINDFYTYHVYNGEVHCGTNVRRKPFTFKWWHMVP

[7] = molecular target: T5, full-length recombinant human PAD4; experiment: ELISA, coated human PAD4; antibody 0.25 ug/mL
[8] = molecular target: T6, full-length recombinant mouse PAD4; experiment: ELISA, coated mouse PAD4; antibody 0.25 ug/mL
[9] = molecular target: T5, full-length recombinant human PAD4; experiment: ELISA, coated human PAD4; antibody 0.0625 ug/mL
[10] = molecular target: T6, full-length recombinant mouse PAD4; experiment: ELISA, coated mouse PAD4; antibody 0.015625 ug/mL
[11] = molecular target: T5, full-length recombinant human PAD4; experiment: ELISA, coated human PAD4; antibody 0.0002441 ug/mL
[12] = molecular target: T5, full-length recombinant human PAD4; experiment: ELISA, coated human PAD4; antibody 0.0009766 ug/mL
[13] = molecular target: T6, full-length recombinant mouse PAD4; experiment: ELISA, coated mouse PAD4; antibody 0.0002441 ug/mL
[14] = molecular target: T6, full-length recombinant mouse PAD4; experiment: ELISA, coated mouse PAD4; antibody 0.0009766 ug/mL
[15] = molecular target: T6, full-length recombinant mouse PAD4; experiment: ELISA, coated mouse PAD4; antibody 0.0039063 ug/mL
[16] = molecular target: T6, full-length recombinant mouse PAD4; experiment: ELISA, coated mouse PAD4; antibody 6.104E-05 ug/mL
[17] = molecular target: T5, full-length recombinant human PAD4; experiment: SPR (Biacore T200), antibody captured, human PAD4 analyte
Experimental: Biacore (GE Healthcare, Biacore T200) was carried out to evaluate the affinity of A11 etc., toward human PAD4. A Mouse Antibody Capture kit (GE Healthcare, BR-1008-38) was used for the affinity assay. Specifically, in accordance with the standard protocol provided by the manufacture, NHS/EDC was used and an amine coupling method, in which a free carboxyl group is fixed on a surface of a CM5 chip, was used to immobilize a rabbit anti-mouse polyclonal antibody on the surface of a CM5 chip. Next, A11 etc., were each captured by the rabbit anti-mouse polyclonal antibody. L207 was likewise captured. Then, human PAD4 at each concentration was subjected to Biacore T200 measurement to create a kinetic sensorgram.

[18] = molecular target: T4, Ala mutant of TA0096, SEQ ID NO: 32; experiment: ELISA, coated peptide
[19] = molecular target: T4, Ala mutant of TA0096, SEQ ID NO: 32; experiment: ELISA, alanine scan (position 345)
Experimental: as §1, §3

OD 490/630 nm [1]	binding result [2]	binding result [3]	binding result [4]	OD 490/630 nm [5]	OD 490/630 nm [6]	OD 490/630 nm [7]	OD 490/630 nm [8]	OD 490/630 nm [9]	OD 490/630 nm [10]	OD 490/630 nm [11]	OD 490/630 nm [12]	OD 490/630 nm [13]	OD 490/630 nm [14]	OD 490/630 nm [15]	OD 490/630 nm [16]	Kd [17]	koff [17]	kon [17]	OD 490/630 nm [18]	Binder	further results
0.043	no binding	no binding	no binding	2.15	2.24	2.11	2.25	2.15	2.02	0.206	0.511	0.152	0.386	1.07	0.045	4.37 nM	0.000566 s⁻¹	129000 M⁻¹ s⁻¹		A11 (antibody, V domains shown, Chicken variable regions in a mouse chimeric antibody (IgG1); also called anti-PAD4 antibody A11) VH: AVTLDESGGGLQTPGGALSLVCKASGFDFSSYGMGWMRQAPGKGLEYVAAIRNDGSWTGYGAAVKGHATISRDNGQSTVRLQLNNLRAEDTGTYYCAKTTGSRGGSIDAWGHGTEVIVS VL: ASTQPSSVSANLGGTVEITCSGGGRYYYGWYQQKSPGSAPVTVIYANDKRPSDIPSRFSGSKSGSTGTLTITGVQAEDEAVYFCGSAETSSYVFGAGTTLTVL	
0.083	no binding	no binding	no binding	2.11	2.27	2.07	2.27	2.12	1.35	0.166	0.437	0.071	0.2	0.55	0.044	8.74 nM	0.000389 s⁻¹	44500 M⁻¹ s⁻¹	0.035	G6 (antibody, V domains shown, Chicken variable regions in a mouse chimeric antibody (IgG1); also called anti-PAD4 antibody G6) VH: AVTLDESGGGLQTPGGALSLVCKASGFTFSSYGMEWVRQAPGKGLEYVAAIRNDGSWTGYGAAVKGRATISRDDGQSTLRLQLNNLRAEDTATYYCAKTTGSSGGSIDAWGHGTEVIVS VL: ASTQPSSVSANLGETVKITCSGGGNYYYGWYQQKSPGSAPVTLIYANDKRPSNIPSRFSGSKSGSTGTLTITGVQAEDEAVYFCGTADTGKYVFGAGTTLTVL	binding result [19]: no binding
	no binding			2.12	2.26	2.1	2.25	2.12	2.25	0.184	0.544	0.205	0.555	1.42	0.122	2.34 nM	0.000243 s⁻¹	104000 M⁻¹ s⁻¹	0.083	G8 (antibody, V domains shown, Chicken variable regions in a mouse chimeric antibody (IgG1); also called anti-PAD4 antibody G8) VH: AVTLDESGGGLQTPGGALSLVCKASGFTFSTYAMGWMRQAPGKGLEYVAAIRNDGSWTGYGAAVKGRATILRDNGQSTVRLQLSNLRAEDTGTYYCAKYTGSSGGSIGAWGHGTEVIVS VL: ASTQPSSVSANLGGTVEITCSGGNRNYYYGWYQQKSPGSAPVTLIYANDKRPSNIPSRFSGSKSGSTGTLTITGVQAEDEAVYFCGTADTGKYVFGAGTTLTVL	binding result [19]: no binding
0.044	no binding	no binding	no binding	2.11	2.3	2.11	2.31	2.12	2.26	0.217	0.537	0.224	0.55	1.41	0.103	7.56 nM	0.000791 s⁻¹	105000 M⁻¹ s⁻¹	0.033	H7 (antibody, V domains shown, Chicken variable regions in a mouse chimeric antibody (IgG1); also called anti-PAD4 antibody H7) VH: AVTLDESGGGLQTPGGALSLVCKASGFTFSTYAMGWMRQAPGKGLEYVAAIRNDGSWTGYGAAVKGRATILRDNGQSTVRLQLSNLRAEDTGTYYCAKYTGSSGGSIGAWGHGTEVIVS VL: ASTQPSSVSANPGGTVEITCSGGSGRYYYGWYQQKSPGSAPVTVIYSSTHRPSNIPSRFSGSKSGSTATLTITGVQAEDEAVYFCGTADSSSYVFGAGTTLTVL	binding result [19]: no binding
0.027	no binding	no binding	no binding	2.11	2.23	2.08	2.23	2.12	1.86	0.176	0.489	0.122	0.416	0.956	0.051	5.52 nM	0.000837 s⁻¹	152000 M⁻¹ s⁻¹		E9 (antibody, V domains shown, Chicken variable regions in a mouse chimeric antibody (IgG1); also called anti-PAD4 antibody E9) VH: AVTLDESGGGLQTPGGTLSLVCKGSGFTFSSYGMGWMRQAPGKGLEYVAAIRNDGSWTGYGSAVKGRATISRDNGQSTVRLQLNNLRAEDTATYYCAKTSGSSGGSVDAWGHGTEVIVS VL: ASTQPSSVSANLGGTVEITCSGGGRYYYGWYQQKSPGSAPVTVIYANDKRPSDIPSRFSGSKSGSTGTLTITGVQAEDEAVYFCGSAETSSYVFGAGTTLTVL	
0.131	no binding	no binding		2.1	2.3	2.08	2.25	2.11	2.21	0.187	0.534	0.181	0.542	1.39	0.079	3.16 nM	0.000284 s⁻¹	90000 M⁻¹ s⁻¹	0.039	G9 (antibody, V domains shown, Chicken variable regions in a mouse chimeric antibody (IgG1); also called anti-PAD4 antibody G9) VH: AVTLDESGGGLQTPGGALSLVCKASGFTFSTYAMGWMRQAPGKGLEYVAAIRNDGSWTGYGAAVKGRATILRDNGQSTVRLQLSNLRAEDTGTYYCAKYTGSSGGSIGAWGHGTEVIVS VL: AVTQPASVSANLGGTVEITCSGGGRYYYGWYQQKSPGSAPVTVIYANDKRPSDIPSRFSGSKSGSTGTLTITGVQAEDEAVYFCGSAETSSYVFGAGTTLTVL	binding result [19]: no binding
